The text below walks through data of publication PMC4188415.

Common to all, as to assay: ITC
In experiment [1] the target is ΔIBB-KPNA5 (66-509) (human).
The target in experiment [2] is KPNA5 in a 1:1 complex with eVP24 (competition ITC) (human | Ebola virus) (UniProt O15131).
The target in experiment [3] is KPNA1 in a 1:1 complex with eVP24 (human | Ebola virus) (UniProt P52294).
Sequence of UniProt P52294 (P52294 whole entry, chain 1 of 2): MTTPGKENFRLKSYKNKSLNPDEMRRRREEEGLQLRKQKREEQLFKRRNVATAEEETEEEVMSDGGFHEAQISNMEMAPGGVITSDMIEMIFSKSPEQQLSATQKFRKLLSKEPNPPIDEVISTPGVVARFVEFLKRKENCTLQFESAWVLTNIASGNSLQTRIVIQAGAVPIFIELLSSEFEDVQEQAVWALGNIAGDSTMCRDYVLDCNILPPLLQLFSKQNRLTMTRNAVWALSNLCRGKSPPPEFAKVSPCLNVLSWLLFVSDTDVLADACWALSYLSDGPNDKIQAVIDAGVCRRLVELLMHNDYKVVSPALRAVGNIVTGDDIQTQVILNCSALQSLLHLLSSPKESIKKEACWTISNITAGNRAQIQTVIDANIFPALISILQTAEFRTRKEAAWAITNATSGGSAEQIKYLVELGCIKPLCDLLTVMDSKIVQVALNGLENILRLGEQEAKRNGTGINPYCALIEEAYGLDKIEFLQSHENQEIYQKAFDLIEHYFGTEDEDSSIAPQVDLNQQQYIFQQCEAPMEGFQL
Sequence of UniProt P52294 (Q05322 whole entry, chain 2 of 2, further chain): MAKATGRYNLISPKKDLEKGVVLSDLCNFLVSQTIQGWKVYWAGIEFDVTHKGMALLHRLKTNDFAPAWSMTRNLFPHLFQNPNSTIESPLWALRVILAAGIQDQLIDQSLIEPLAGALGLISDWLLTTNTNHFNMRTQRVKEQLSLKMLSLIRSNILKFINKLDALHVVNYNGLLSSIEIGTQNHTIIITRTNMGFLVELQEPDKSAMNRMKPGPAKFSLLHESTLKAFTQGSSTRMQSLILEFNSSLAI

Sequence of UniProt O15131 (O15131 whole entry, chain 1 of 2): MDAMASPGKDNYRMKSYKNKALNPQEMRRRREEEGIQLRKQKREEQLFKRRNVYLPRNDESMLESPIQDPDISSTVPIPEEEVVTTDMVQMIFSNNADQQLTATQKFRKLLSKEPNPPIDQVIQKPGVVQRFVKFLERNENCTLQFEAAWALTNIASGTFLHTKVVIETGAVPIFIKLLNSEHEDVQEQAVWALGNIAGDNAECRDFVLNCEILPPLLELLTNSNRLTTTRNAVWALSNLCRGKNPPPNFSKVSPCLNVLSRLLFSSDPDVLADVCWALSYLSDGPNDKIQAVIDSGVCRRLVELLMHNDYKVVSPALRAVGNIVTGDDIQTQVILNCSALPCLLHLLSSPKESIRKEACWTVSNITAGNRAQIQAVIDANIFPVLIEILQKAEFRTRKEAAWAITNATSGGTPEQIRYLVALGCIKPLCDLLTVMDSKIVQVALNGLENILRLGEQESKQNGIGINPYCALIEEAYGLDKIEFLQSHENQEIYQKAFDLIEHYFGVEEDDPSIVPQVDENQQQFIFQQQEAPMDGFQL
Sequence of UniProt O15131 (Q05322 whole entry, chain 2 of 2, further chain): as the sequence (Q05322 whole entry, chain 2 of 2, further chain) above

“MBP-tagged eVP24 (residues 11-237) (from UniProt Q05322 11-237) (domain or fragment)”: in experiment [1], the equilibrium dissociation constant (Kd) was in the range of 1 to 10 nM.
For the substance nucleoplasmin peptide (bipartite cNLS), the fold difference in binding against KPNA5 without eVP24 in experiment [2] is 2 fold. The fold difference in binding against KPNA1 without eVP24 in experiment [3] turned out to be 2 fold.

Broadly, the Kd is the concentration at which binding is half-saturated.
